According to article PMC314469, “Protein Interaction Networks by Proteome Peptide Scanning” (PLoS Biology, 2004):

How the values were obtained:
[1] = biological target: endophilin SH3 (SH3G2_HUMAN), Q99962; experiment: SPOT array
[2] = biological target: T1, amphyphisin SH3 (AMPH_HUMAN), P49418; experiment: SPOT array
T1 chain: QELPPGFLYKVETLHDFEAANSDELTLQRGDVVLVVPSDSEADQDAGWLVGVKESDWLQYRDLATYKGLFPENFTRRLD

Row | Binder | normalised SPOT signal, Boehringer light units (BLU); mean over the file's lines of this peptide [1] | normalised SPOT signal, Boehringer light units (BLU); mean over the file's lines of this peptide [2]
1 | FLGHIKRPWGISVG [Q12908 58-71] | 116 | 34.2
2 | FLLLPPRPPPARPE [Q96IC8 98-112] | 2020 | 42.3
3 | AIAPPPRPPKPSQA [Q9UQC2 347-361] | 5760 | 3020
4 | FLNRLVRPRRSAPK [O43508 84-97] | 2010 | 724
5 | FLTRLRRPIGKMTI [P28288 243-256] | 382 | 14.2
6 | FMSSPRRPRSRGRQ [Q9HAP2 6-19] | 1160 | 1130
7 | FNDSPYKPPVTRSN [Q9H7L2 189-203] | 93 | 64.1
8 | FNFDFRRPGPEPPR [O43559 400-413] | 100 | 26.2
9 | FNFDIRRPSLEHRQ [O43558 420-433] | 3350 | 115
10 | FNKYISRPRRVELA [P52945 167-180] | 385 | 242
11 | FNKYLSRPRRVEIA [O43364 164-177] | 156 | 255
12 | FNKYLSRPKRFEVA [P50219 263-276] | 111 | 193
13 | FNQALGRPEKIHNK [Q9UHP3 379-392] | 100 | 92
14 | AILTLPRPVRASLP [Q9NQ75 154-167] | 1390 | 402
15 | FNRYLSRPRRVEMA [O43365 212-225] | 204 | 336
16 | FPTVPTRPEKGYIW [Q99995 108-121] | 425 | 562
17 | FQEFLKRPDHKQDF [Q9C093 551-564] | 32.9 | 32.9
18 | FRGSFRRPDNLSLA [Q9Y4B7 288-301] | 109 | 74.9
19 | FRRLPTRPRKGGPE [Q9NXF8 292-305] | 1540 | 340
20 | FRRVLLRPSRRVRS [P32745 324-337] | 889 | 5790
21 | FSESLKRPWEDDPP [Q9Y384 121-134] | 35.3 | 58.5

Row | Binder | normalised SPOT signal, Boehringer light units (BLU); mean over the file's lines of this peptide [1] | normalised SPOT signal, Boehringer light units (BLU); mean over the file's lines of this peptide [2]
22 | FSFSLPRPGRRGSR [O00538 575-588] | 2080 | 1090
23 | FSHILKRPDRVLLI [P33076 484-497] | 292 | 879
24 | FSHLLRRPPPEAPR [O76081 86-99] | 5220 | 172
25 | AKDLLRRPFDLMLV [Q9BZW5 208-221] | 71.1 | 31.3
26 | FSSFLKRPKSQVSE [P11171 83-96] | 51.3 | 37.5
27 | FSSVPSKPPMSLEP [Q96E32 219-233] | 35.9 | 30.1
28 | FTDLPKKPPPPEVT [Q96QH2 75-89] | 59.2 | 88
29 | FTGPPQKPPRLGAQ [Q14289 851-865] | 76.1 | 2710
30 | FTKTIKRPFGVKYN [P17752 389-402] | 61.9 | 22.4
31 | FVSPPNRPFRSKND [Q07954 3693-3706] | 224 | 3720
32 | FVLRPLRPSRRYST [Q14539 22-35] | 18800 | 10100
33 | FVLVPLRPPSPARS [O75055 1510-1524] | 17300 | 1620
34 | FVNEIRRPNGENYA [Q9UBW7 1125-1138] | 12.8 | 23.8
35 | FVTELRRPDAVRTK [Q9NQ90 781-794] | 43.1 | 38.2
36 | AKINLKRPPTAGSQ [Q9HA08 198-211] | 59 | 0
37 | FVTELRRPVAVRAK [Q9NW72 376-389] | 117 | 39.9
38 | FVYNFIRPVKGKVS [Q9NUW7 10-23] | 122 | 190
39 | FWQSPKRPPSPIKF [Q9H3T7 733-747] | 12400 | 349
40 | FYRDLRRPFSAPDA [Q9HB63 378-391] | 175 | 53.3
41 | FYYRPPRPPKGASK [P46527 86-100] | 4600 | 3820
42 | GAARLGRPGRSSLP [P34925 3-16] | 129 | 129
